B1: TNF receptor-associated factor 2 (Homo sapiens), Q12933 (parent)
chain: MAAASVTPPGSLELLQPGFSKTLLGTKLEAKYLCSACRNVLRRPFQAQCGHRYCSFCLASILSSGPQNCAACVHEGIYEEGISILESSSAFPDNAARREVESLPAVCPSDGCTWKGTLKEYESCHEGRCPLMLTECPACKGLVRLGEKERHLEHECPERSLSCRHCRAPCCGADVKAHHEVCPKFPLTCDGCGKKKIPREKFQDHVKTCGKCRVPCRFHAIGCLETVEGEKQQEHEVQWLREHLAMLLSSVLEAKPLLGDQSHAGSELLQRCESLEKKTATFENIVCVLNREVERVAMTAEACSRQHRLDQDKIEALSSKVQQLERSIGLKDLAMADLEQKVLEMEASTYDGVFIWKISDFARKRQEAVAGRIPAIFSPAFYTSRYGYKMCLRIYLNGDGTGRGTHLSLFFVVMKGPNDALLRWPFNQKVTLMLLDQNNREHVIDAFRPDVTSSSFQRPVNDMNIASGCPLFCPVSKMEAKNSYVRDDAIFIKAIVDLTGL
partner: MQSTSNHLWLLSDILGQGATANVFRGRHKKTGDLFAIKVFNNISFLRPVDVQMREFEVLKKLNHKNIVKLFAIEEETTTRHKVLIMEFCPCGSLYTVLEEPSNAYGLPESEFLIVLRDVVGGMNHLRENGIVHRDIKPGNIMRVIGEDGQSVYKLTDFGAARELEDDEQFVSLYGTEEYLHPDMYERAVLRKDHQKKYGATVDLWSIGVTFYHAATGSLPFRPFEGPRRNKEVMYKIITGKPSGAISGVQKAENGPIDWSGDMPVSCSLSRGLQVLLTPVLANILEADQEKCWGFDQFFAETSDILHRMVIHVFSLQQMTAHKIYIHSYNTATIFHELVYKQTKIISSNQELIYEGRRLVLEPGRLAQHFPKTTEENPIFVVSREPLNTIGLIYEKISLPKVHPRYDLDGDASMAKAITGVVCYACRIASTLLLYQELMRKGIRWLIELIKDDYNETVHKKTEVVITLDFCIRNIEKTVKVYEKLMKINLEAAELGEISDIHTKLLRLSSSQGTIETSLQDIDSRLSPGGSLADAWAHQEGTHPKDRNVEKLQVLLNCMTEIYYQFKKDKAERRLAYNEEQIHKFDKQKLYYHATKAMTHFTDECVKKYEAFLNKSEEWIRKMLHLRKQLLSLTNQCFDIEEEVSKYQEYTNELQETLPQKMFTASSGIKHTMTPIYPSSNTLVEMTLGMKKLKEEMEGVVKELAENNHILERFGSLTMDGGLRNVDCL
B2: TNF receptor-associated factor 3 (Homo sapiens), Q13114 (parent)
chain: MESSKKMDSPGALQTNPPLKLHTDRSAGTPVFVPEQGGYKEKFVKTVEDKYKCEKCHLVLCSPKQTECGHRFCESCMAALLSSSSPKCTACQESIVKDKVFKDNCCKREILALQIYCRNESRGCAEQLMLGHLLVHLKNDCHFEELPCVRPDCKEKVLRKDLRDHVEKACKYREATCSHCKSQVPMIALQKHEDTDCPCVVVSCPHKCSVQTLLRSELSAHLSECVNAPSTCSFKRYGCVFQGTNQQIKAHEASSAVQHVNLLKEWSNSLEKKVSLLQNESVEKNKSIQSLHNQICSFEIEIERQKEMLRNNESKILHLQRVIDSQAEKLKELDKEIRPFRQNWEEADSMKSSVESLQNRVTELESVDKSAGQVARNTGLLESQLSRHDQMLSVHDIRLADMDLRFQVLETASYNGVLIWKIRDYKRRKQEAVMGKTLSLYSQPFYTGYFGYKMCARVYLNGDGMGKGTHLSLFFVIMRGEYDALLPWPFKQKVTLMLMDQGSSRRHLGDAFKPDPNSSSFKKPTGEMNIASGCPVFVAQTVLENGTYIKDDTIFIKVIVDTSDLPDP
partner: B1 partner
B3: Inducible T-cell costimulator (Homo sapiens), Q9Y6W8 (parent)
chain: MKSGLWYFFLFCLRIKVLTGEINGSANYEMFIFHNGGVQILCKYPDIVQQFKMQLLKGGQILCDLTKTKGSGNTVSIKSLKFCHSQLSNNSVSFFLYNLDHSHANYYFCNLSIFDPPPFKVTLTGGYLHIYESQLCCQLKFWLPIGCAAFVVVCILGCILICWLTKKKYSSSVHDPNGEYMFMRAVNTAKKSRLTDVTL
partner: B1 partner
B4: Inducible T-cell costimulator (Homo sapiens), Q9Y6W8 (parent)
chain: B3 chain

Variants of: B1
Conditions: with tbk1_human TBK1, Q9UHD2

| effect of a mutation on the interaction | Variant |
| --- | --- |
| disrupting interaction strength | S453A;S454A;S455A;F456A;Q457A;R458A;P459A;V460A;N461A;D462A |

Variants of: B2
Conditions: with tbk1_human TBK1, Q9UHD2

| effect of a mutation on the interaction | Variant |
| --- | --- |
| decreasing interaction strength | S518A;S519A;S520A;F521A;K522A;K523A;P524A;T525A;G526A;E527A |

Variants of: B3
Conditions: with tbk1_human TBK1, Q9UHD2

| effect of a mutation on the interaction | Variant |
| --- | --- |
| decreasing interaction strength | S170A;S171A;S172A;V173A;H174A;D175A;P176A;N177A;G178A;E179A |

Variants of: B3
Conditions: with tbk1_human TBK1, Q9UHD2
Remark: another data set of the same source

| effect of a mutation on the interaction | Variant |
| --- | --- |
| with no effect | Y180F |

Variants of: B4
Conditions: with p85a_human PIK3R1, P27986
Sequence of p85a_human PIK3R1, P27986 (P27986 whole entry): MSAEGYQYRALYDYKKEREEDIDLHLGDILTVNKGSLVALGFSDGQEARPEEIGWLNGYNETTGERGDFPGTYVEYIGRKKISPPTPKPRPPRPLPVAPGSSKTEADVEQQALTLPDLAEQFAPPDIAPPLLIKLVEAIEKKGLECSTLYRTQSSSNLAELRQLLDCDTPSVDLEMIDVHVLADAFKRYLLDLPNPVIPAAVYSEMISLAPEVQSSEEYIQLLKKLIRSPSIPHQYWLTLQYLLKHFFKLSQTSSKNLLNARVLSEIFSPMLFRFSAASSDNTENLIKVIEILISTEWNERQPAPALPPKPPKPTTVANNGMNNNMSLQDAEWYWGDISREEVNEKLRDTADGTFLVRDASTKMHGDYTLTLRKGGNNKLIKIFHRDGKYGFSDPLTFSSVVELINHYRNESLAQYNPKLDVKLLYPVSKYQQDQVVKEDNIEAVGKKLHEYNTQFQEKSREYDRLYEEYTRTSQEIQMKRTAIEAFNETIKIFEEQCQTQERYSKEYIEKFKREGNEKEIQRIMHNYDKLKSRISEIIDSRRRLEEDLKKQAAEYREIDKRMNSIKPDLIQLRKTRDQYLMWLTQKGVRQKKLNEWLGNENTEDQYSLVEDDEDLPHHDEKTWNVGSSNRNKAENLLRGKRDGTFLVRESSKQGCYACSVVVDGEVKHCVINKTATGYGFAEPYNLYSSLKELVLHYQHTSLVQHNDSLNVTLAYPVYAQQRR

| effect of a mutation on the interaction | Variant |
| --- | --- |
| disrupting interaction strength | Y180F |

Variants of: B4
Conditions: with p85a_human PIK3R1, P27986
Remark: another data set of the same source

| effect of a mutation on the interaction | Variant |
| --- | --- |
| with no effect | S170A;S171A;S172A;V173A;H174A;D175A;P176A;N177A;G178A;E179A |

Reference: IntAct's records for PubMed 27135603
